Source: US20150218594A1, “CELL-FREE AND MINIMIZED METABOLIC REACTION CASCADES FOR THE PRODUCTION OF CHEMICALS” (CLARIANT PRODUKTE (DEUTSCHLAND) GMBH, priority 2012, published 2015)
Like-named read-outs stand apart in the source and are kept apart here.

Columns and labels:
[1] = ALS activity (pyruvate consumption); type: biochemical; conditions: natural substrate
Procedure: (§1) (J. Mol. Catal. B-Enzym. 2009, 61, 30-35).
ALS activity: ALS activity was determined by following pyruvate consumption at 50° C. Reaction mixtures contained 25 mM HEPES (pH 7), 0.1 mM thiamine-pyrophosphate, 2.5 mM MgCl2, 15 mM sodium pyruvate. Pyruvate concentration in the samples was determined via lactate dehydrogenase as described elsewhere. (Biochem. J. 2007, 403, 421-430)

[2] = Isobutanol tolerance of enzymes (I50); type: biochemical
[3] = Table 2, value with literature reference; cited from earlier work
[4] = Enzyme half-life at 50° C.
[5] = KARI activity (NADH consumption, acetolactate to 2,3-dihydroxy isovalerate); type: biochemical; conditions: natural substrate
Procedure: as §1
KARL activity: KARI activity was assayed by following the NADH consumption connected to the conversion of acetolactate to 2,3-dihydroxy isovalerate at 50° C. Assay mixture contained 5 mM acetolactate, 0.3 mM NADH, 10 mM MgCl2 and 50 mM HEPES, pH 7.

[6] = Enzyme temperature optimum; type: biochemical; conditions: Table 2
[7] = KDC activity (decarboxylation of 2-ketoisovalerate); type: biochemical; conditions: natural substrate
Procedure: as §1
KDC activity: KDC activity was assayed by following the decarboxylation of 2-ketoisovalerate to isobutyraldehyde at 50° C. and 340 nm. Assay mixture contained 50 mM HEPES (pH 7), 0.1 mM thiamine-pyrophosphate, 2.5 mM MgCl2 and 60 mM 2-ketoisovalerate. Decarboxylation rate was calculated using the molar extinction coefficient of 2-ketoisovalerate (s=0.017 L mmol-1 cm-1). (J. Mol. Catal. B-Enzym. 2009, 61, 30-35)

Molecule	Activity, 50° C. [1] [U/mg]	I50: Isobutanol concentration which causes loss of 50% activity ([2]; 50° C.)	T-Optimum [3]	Half-life, 50° C. [4] [h]	Activity, 50° C. [5] [U/mg]	T-Optimum [6] [°C]	I50: Isobutanol concentration which causes loss of 50% activity ([2]; 40° C.)	Activity, 50° C. [7] [U/mg]	I50: Isobutanol concentration which causes loss of 50% activity ([2]; 45° C.)
ALS: Acetolactate synthase ALS (EC 2.2.1.6), Bacillus subtilis, Seq ID 12 (protein, listed as Bacillus subtilis) MLTKATKEQKSLVKNRGAELVVDCLVEQGVTHVFGIPGAKIDAVFDALQDKGPEIIVARHEQNAAFMAQAVGRLTGKPGVVLVTSGPGASNLATGLLTANTEGDPVVALAGNVIRADRLKRTHQSLDNAALFQPITKYSVEVQDVKNIPEAVTNAFRIASAGQAGAAFVSFPQDVVNEVTNTKNVRAVAAPKLGPAADDAISAAIAKIQTAKLPVVLVGMKGGRPEAIKAVRKLLKKVQLPFVETYQAAGTLSRDLEDQYFGRIGLFRNQPGDLLLEQADVVLTIGYDPIEYDPKFWNINGDRTIIHLDEIIADIDHAYQPDLELIGDIPSTINHIEHDAVKVEFAEREQKILSDLKQYMHEGEQVPADWKSDRAHPLEIVKELRNAVDDHVTVTCDIGSHAIWMSRYFRSYEPLTLMISNGMQTLGVALPWAIGASLVKPGEKVVSVSGDGGFLFSAMELETAVRLKAPIVHIVWNDSTYDMVAFQQLKKYNRTSAVDFGNIDIVKYAESFGATGLRVESPDQLADVLRQGMNAEGPVIIDVPVDYSDNINLASDKLPKEFGELMKTKALL	30	4 (50° C.) % v/v	37^[4] ° C.	12	–	–	–	–	–
KARI: Ketol-acid reductoisomerase KARI (EC 1.1.1.86), Meiothermus ruber, Seq ID 14 (protein, Ketolacid reductoisomerase (EC 1.1.1.86), Meiothermus ruber Protein sequence including C-terminal His-Tag) MKIYYDQDADIGFIKDKTVAILGFGSQGHAHALNLRDSGIKVVVGLRPGSRNEEKARKAGLEVLPVGEAVRRADVVMILLPDETQGAVYKAEVEPNLKEGAALAFAHGFNIHFGQIKPRRDLDVWMVAPKGPGHLVRSEYEKGSGVPSLVAVYQDASGSAFPTALAYAKANGGTRAGTIATTFKDETETDLFGEQTVLCGGLTQLIAAGFETLVEAGYPPEMAYFECLHEVKLIVDLIYESGFAGMRYSISNTAEYGDYTRGPMVINREETKARMREVLRQIQQGEFAREWMLENVVGQPTLNANRNYWKDHPIEQVGPKLRAMMPFLKSRFTKEEVGSSGRPVLGSSHHHHHH	–	–	–	34	0.7	55	8 (40° C.) % v/v	–	–
KDC: Branched-chain-2-oxo acid decarboxylase KDC (EC 4.1.1.72), Lactococcus lactis, Seq ID 16 (protein, Branched-chain ketoacid decarboxylase (EC 4.1.1.72), Lactococcus lactis Protein sequence including N-terminal His-Tag) MGSSHHHHHHSSGLVPRGSHMASMYTVGDYLLDRLHELGIEEIFGVPGDYNLQFLDQIISREDMKWIGNANELNASYMADGYARTKKAAAFLTTFGVGELSAINGLAGSYAENLPVVEIVGSPTSKVQNDGKFVHHTLADGDFKHFMKMHEPVTAARTLLTAENATYEIDRVLSQLLKERKPVYINLPVDVAAAKAEKPALSLEKESSTTNTTEQVILSKIEESLKNAQKPVVIAGHEVISFGLEKTVTQFVSETKLPITTLNFGKSAVDESLPSFLGIYNGKLSEISLKNFVESADFILMLGVKLTDSSTGAFTHHLDENKMISLNIDEGIIFNKVVEDFDFRAVVSSLSELKGIEYEGQYIDKQYEEFIPSSAPLSQDRLWQAVESLTQSNETIVAEQGTSFFGASTIFLKSNSRFIGQPLWGSIGYTFPAALGSQIADKESRHLLFIGDGSLQLTVQELGLSIREKLNPICFIINNDGYTVEREIHGPTQSYNDIPMWNYSKLPETFGATEDRVVSKIVRTENEFVSVMKEAQADVNRMYWIELVLEKEDAPKLLKKMGKLFAEQNK	–	–	50^[5] ° C.	>24	–	–	–	150	4 (45° C.) % v/v
